Laboratory results reported in US20200024322A1 (Eli Lilly, published 2020).
Substitutions are numbered along the chain they refer to. Numbered stars: 1 amine (or outer) side, 2 acyl side, 3 side chain; on linkers, the order of the positions; unused ones are H or OH. Square brackets hold non-standard residues; d marks the D form. Side chains are listed from the residue outwards. Ends that are not written are not given here. * marks the point of attachment. C20 diacid = O=C(O)CCCCCCCCCCCCCCCCCCC(=O)*; αMePhe(2-F) = C[C@](N)(Cc1ccccc1F)C(=O)O; γGlu = O=C(O)[C@H](CCC(=O)[*:2])N[*:1]; Desaminohistidyl = O=C(CCc1c[nH]cn1)*; αMeF = C[C@](N)(Cc1ccccc1)C(=O)O; AEEA = NCCOCCOCC(=O)O; Aib = CC(C)(N)C(=O)O

B1: Example 5 (peptide)
peptide: YXEGTXTSDVSIXLDXKAQXEFIXXLIEGGPSSGAPPPS
modifications: not fully specified; Aib2; αMeF(2F)6; αMeL13; Orn16; K17((2-[2-(2-Amino-ethoxy)-ethoxy]-acetyl)2-(γ-Glu)-CO-(CH2)16-CO2H); Aib20; D-Glu24; αMeY25; C-terminal NH2
B2: Example 88 (peptide)
peptide: YPEGTFTSDYSILLDKK([AEEA-AEEA-γGlu-C20 diacid])AQ[Aib]AFIEYLIEGGPSSGAPPPS-NH2
modifications: N-terminus assumed
SMILES: CC[C@H](C)[C@H](NC(=O)[C@H](CC(C)C)NC(=O)[C@H](Cc1ccc(O)cc1)NC(=O)[C@H](CCC(=O)O)NC(=O)[C@@H](NC(=O)[C@H](Cc1ccccc1)NC(=O)[C@H](C)NC(=O)C(C)(C)NC(=O)[C@H](CCC(N)=O)NC(=O)[C@H](C)NC(=O)[C@H](CCCCNC(=O)COCCOCCNC(=O)COCCOCCNC(=O)CC[C@H](NC(=O)CCCCCCCCCCCCCCCCCCC(=O)O)C(=O)O)NC(=O)[C@H](CCCCN)NC(=O)[C@H](CC(=O)O)NC(=O)[C@H](CC(C)C)NC(=O)[C@H](CC(C)C)NC(=O)[C@@H](NC(=O)[C@H](CO)NC(=O)[C@H](Cc1ccc(O)cc1)NC(=O)[C@H](CC(=O)O)NC(=O)[C@H](CO)NC(=O)[C@@H](NC(=O)[C@H](Cc1ccccc1)NC(=O)[C@@H](NC(=O)CNC(=O)[C@H](CCC(=O)O)NC(=O)[C@@H]1CCCN1C(=O)[C@@H](N)Cc1ccc(O)cc1)[C@@H](C)O)[C@@H](C)O)[C@@H](C)CC)[C@@H](C)CC)C(=O)N[C@@H](CCC(=O)O)C(=O)NCC(=O)NCC(=O)N1CCC[C@H]1C(=O)N[C@@H](CO)C(=O)N[C@@H](CO)C(=O)NCC(=O)N[C@@H](C)C(=O)N1CCC[C@H]1C(=O)N1CCC[C@H]1C(=O)N1CCC[C@H]1C(=O)N[C@@H](CO)C(N)=O
B3: Example 101 (peptide)
peptide: Y[Aib]EGT[αMePhe(2-F)]TSDYSI[Aib]LDEK([AEEA-AEEA-γGlu-C20 diacid])AQ[Aib]AFIEYLIEGG-NH2
modifications: N-terminus assumed
SMILES: CC[C@H](C)[C@H](NC(=O)[C@H](CC(C)C)NC(=O)[C@H](Cc1ccc(O)cc1)NC(=O)[C@H](CCC(=O)O)NC(=O)[C@@H](NC(=O)[C@H](Cc1ccccc1)NC(=O)[C@H](C)NC(=O)C(C)(C)NC(=O)[C@H](CCC(N)=O)NC(=O)[C@H](C)NC(=O)[C@H](CCCCNC(=O)COCCOCCNC(=O)COCCOCCNC(=O)CC[C@H](NC(=O)CCCCCCCCCCCCCCCCCCC(=O)O)C(=O)O)NC(=O)[C@H](CCC(=O)O)NC(=O)[C@H](CC(=O)O)NC(=O)[C@H](CC(C)C)NC(=O)C(C)(C)NC(=O)[C@@H](NC(=O)[C@H](CO)NC(=O)[C@H](Cc1ccc(O)cc1)NC(=O)[C@H](CC(=O)O)NC(=O)[C@H](CO)NC(=O)[C@@H](NC(=O)[C@](C)(Cc1ccccc1F)NC(=O)[C@@H](NC(=O)CNC(=O)[C@H](CCC(=O)O)NC(=O)C(C)(C)NC(=O)[C@@H](N)Cc1ccc(O)cc1)[C@@H](C)O)[C@@H](C)O)[C@@H](C)CC)[C@@H](C)CC)C(=O)N[C@@H](CCC(=O)O)C(=O)NCC(=O)NCC(N)=O
B4: Example 75 (peptide)
peptide: YXEGTFTSDYSIXLDKKAQXAFIEYXIEGGPSSGAPPPS
modifications: Aib2; αMeL13; K17((2-[2-(2-Amino-ethoxy)-ethoxy]-acetyl)2-(γ-Glu)-CO-(CH2)18-CO2H); Aib20; αMeL26; C-terminal NH2
B5: Example 83 (peptide)
peptide: B4 peptide with X13L, X26L, E28X
modifications: Aib2; K17((2-[2-(2-Amino-ethoxy)-ethoxy]-acetyl)2-(γ-Glu)-CO-(CH2)18-CO2H); Aib20; D-Glu28; C-terminal NH2
B6: Example 78 (peptide)
peptide: B4 peptide with Y1X, X13L, X26L
modifications: D-Tyr1; Aib2; K17((2-[2-(2-Amino-ethoxy)-ethoxy]-acetyl)2-(γ-Glu)-CO-(CH2)18-CO2H); Aib20; C-terminal NH2
B7: Example 81 (peptide)
peptide: B4 peptide with S11X, X13L, X26L
modifications: Aib2; D-Ser11; K17((2-[2-(2-Amino-ethoxy)-ethoxy]-acetyl)2-(γ-Glu)-CO-(CH2)18-CO2H); Aib20; C-terminal NH2
B8: Example 76 (peptide)
peptide: B4 peptide with F6X, F22X, X26L
modifications: Aib2; αMeF6 (printed aMeF); αMeL13; K17((2-[2-(2-Amino-ethoxy)-ethoxy]-acetyl)2-(γ-Glu)-CO-(CH2)18-CO2H); Aib20; αMeF22; C-terminal NH2
B9: Example 89 (peptide)
peptide: B4 peptide with E3X, X13L, X26L
modifications: Aib2; Aad3; K17((2-[2-(2-Amino-ethoxy)-ethoxy]-acetyl)2-(γ-Glu)-CO-(CH2)18-CO2H); Aib20; C-terminal NH2
B10: Example 79 (peptide)
peptide: B4 peptide with Y1X, X2A, X13L, X26L
modifications: N-terminal Ac; D-Tyr1; K17((2-[2-(2-Amino-ethoxy)-ethoxy]-acetyl)2-(γ-Glu)-CO-(CH2)18-CO2H); Aib20; C-terminal NH2
B11: Example 91 (peptide)
peptide: B4 peptide with E3X, X13L, X26L
modifications: Aib2; γ-Glu3; K17((2-[2-(2-Amino-ethoxy)-ethoxy]-acetyl)2-(γ-Glu)-CO-(CH2)18-CO2H); Aib20; C-terminal NH2
B12: Example 100 (peptide)
peptide: YXEGTXTSDYSIXLDEKAQXAFIEYLIEGG
modifications: Aib2; αMeF6; αMeL13; K17((2-[2-(2-Amino-ethoxy)-ethoxy]-acetyl)2-(γ-Glu)-CO-(CH2)18-CO2H); Aib20; C-terminal NH2
B13: Example 104 (peptide)
peptide: B12 peptide with A21E
modifications: Aib2; αMeF(2F)6; αMeL13; K17((2-[2-(2-Amino-ethoxy)-ethoxy]-acetyl)2-(γ-Glu)-CO-(CH2)16-CO2H); Aib20; C-terminal NH2
B14: Example 99 (peptide)
peptide: B12 peptide with E16K
modifications: Aib2; αMeF6; αMeL13; K17((2-[2-(2-Amino-ethoxy)-ethoxy]-acetyl)2-(γ-Glu)-CO-(CH2)18-CO2H); Aib20; C-terminal NH2
B15: Example 103 (peptide)
peptide: B12 peptide with A21E
modifications: Aib2; αMeF(2F)6; αMeL13; K17((2-[2-(2-Amino-ethoxy)-ethoxy]-acetyl)2-(γ-Glu)-CO-(CH2)18-CO2H); Aib20; C-terminal NH2
B16: Example 93 (peptide)
peptide: Y[Aib]EGT[αMeF]TSDYSILK([AEEA-AEEA-γGlu-C20 diacid])DKIAQ[Aib]AFIEYLIEGG-NH2
modifications: N-terminus assumed
SMILES: CC[C@H](C)[C@H](NC(=O)[C@H](CCCCN)NC(=O)[C@H](CC(=O)O)NC(=O)[C@H](CCCCNC(=O)COCCOCCNC(=O)COCCOCCNC(=O)CC[C@H](NC(=O)CCCCCCCCCCCCCCCCCCC(=O)O)C(=O)O)NC(=O)[C@H](CC(C)C)NC(=O)[C@@H](NC(=O)[C@H](CO)NC(=O)[C@H](Cc1ccc(O)cc1)NC(=O)[C@H](CC(=O)O)NC(=O)[C@H](CO)NC(=O)[C@@H](NC(=O)[C@](C)(Cc1ccccc1)NC(=O)[C@@H](NC(=O)CNC(=O)[C@H](CCC(=O)O)NC(=O)C(C)(C)NC(=O)[C@@H](N)Cc1ccc(O)cc1)[C@@H](C)O)[C@@H](C)O)[C@@H](C)CC)C(=O)N[C@@H](C)C(=O)N[C@@H](CCC(N)=O)C(=O)NC(C)(C)C(=O)N[C@@H](C)C(=O)N[C@@H](Cc1ccccc1)C(=O)N[C@H](C(=O)N[C@@H](CCC(=O)O)C(=O)N[C@@H](Cc1ccc(O)cc1)C(=O)N[C@@H](CC(C)C)C(=O)N[C@H](C(=O)N[C@@H](CCC(=O)O)C(=O)NCC(=O)NCC(N)=O)[C@@H](C)CC)[C@@H](C)CC

target: T1, human GLP-1 receptor (human, UniProt P43220 24-463); assay: SPA, [125I]-GLP-1 displacement, hGLP-1R membranes
T1 construct: whole, on cells; Used as crude membranes of stably transfected HEK293 cells; also called hGLP1R; hGLP-1R

Binder | Ki
B1 | 0.902 nM
B2 | 4.24 nM
B3 | 8.1 nM
B4 | 24.4 nM
B5 | 7.1 nM
B6 | 3.94 nM
B7 | 2.88 nM
B8 | 2.64 nM
B9 | 2.64 nM
B10 | 2.69 nM
B11 | 5.23 nM
B12 | 4.13 nM
B13 | 3.91 nM
B14 | 1.15 nM
B15 | 6.68 nM
[Desaminohistidyl][Aib]EGTFTSDYSILLDKK([AEEA-AEEA-γGlu-C20 diacid])AQ[Aib]AFIEYLIEGGPSSGAPPPS-NH2 (also: reversed amide ψ[NHCO] between residues 1 and 2) [Example 105] | 0.871 nM
B16 | 1.89 nM

target: T2, human GIP receptor (human, UniProt P48546 22-466); assay: SPA, [125I]-GIP displacement, hGIPR membranes
T2 construct: whole, on cells; Used as crude membranes of stably transfected CHO cells; also called hGIPR
T2 sequence (looked up): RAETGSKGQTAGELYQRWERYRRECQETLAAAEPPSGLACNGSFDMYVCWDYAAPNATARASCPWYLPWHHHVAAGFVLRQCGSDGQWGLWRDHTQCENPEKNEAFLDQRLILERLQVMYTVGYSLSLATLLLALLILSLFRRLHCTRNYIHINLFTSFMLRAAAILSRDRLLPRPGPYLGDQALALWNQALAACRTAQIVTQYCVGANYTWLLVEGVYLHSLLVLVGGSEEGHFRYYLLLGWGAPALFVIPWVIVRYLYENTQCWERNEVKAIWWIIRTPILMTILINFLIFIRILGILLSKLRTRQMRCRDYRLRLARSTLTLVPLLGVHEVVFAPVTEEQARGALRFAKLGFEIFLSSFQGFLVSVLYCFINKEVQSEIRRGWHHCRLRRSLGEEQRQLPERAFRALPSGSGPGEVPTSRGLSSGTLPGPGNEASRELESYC

Binder | Ki
B1 | 0.0611 nM
B2 | 0.0717 nM
B3 | 0.0953 nM
B4 | 0.103 nM
B5 | 0.142 nM
B6 | 0.163 nM
B7 | 0.198 nM
B8 | 0.0659 nM
B9 | 0.045 nM
B10 | 0.0313 nM
B11 | 1.8 nM
B12 | 0.115 nM
B13 | 0.0565 nM
B14 | 0.027 nM
B15 | 0.0645 nM
[Desaminohistidyl][Aib]EGTFTSDYSILLDKK([AEEA-AEEA-γGlu-C20 diacid])AQ[Aib]AFIEYLIEGGPSSGAPPPS-NH2 (also: reversed amide ψ[NHCO] between residues 1 and 2) [Example 105] | 0.119 nM
B16 | 0.0859 nM

target: T3, human glucagon receptor (human, UniProt P47871 26-477); assay: SPA, [125I]-Gcg displacement, hGcgR membranes
T3 construct: whole, on cells; Used as crude membranes of stably transfected HEK293 cells; also called hGcgR; hGLcgR
T3 sequence (P47871 26-477): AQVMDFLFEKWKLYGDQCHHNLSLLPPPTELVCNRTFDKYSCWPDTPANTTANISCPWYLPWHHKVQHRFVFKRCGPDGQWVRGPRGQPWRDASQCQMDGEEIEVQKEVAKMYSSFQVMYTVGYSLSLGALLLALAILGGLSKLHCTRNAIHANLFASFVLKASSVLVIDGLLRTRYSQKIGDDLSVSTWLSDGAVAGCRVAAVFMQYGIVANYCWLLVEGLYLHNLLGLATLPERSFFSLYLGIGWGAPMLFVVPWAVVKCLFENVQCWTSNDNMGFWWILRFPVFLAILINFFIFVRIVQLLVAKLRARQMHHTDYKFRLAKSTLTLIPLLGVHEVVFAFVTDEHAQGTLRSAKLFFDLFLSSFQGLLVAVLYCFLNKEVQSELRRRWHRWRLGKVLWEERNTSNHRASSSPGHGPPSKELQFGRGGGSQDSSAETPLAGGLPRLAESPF

Binder | Ki
B1 | 519 nM
B2 | 545 nM
B3 | 117 nM
B4 | 283 nM
B5 | 320 nM
B6 | 215 nM
B7 | 344 nM
B8 | 14.4 nM
B9 | 324 nM
B10 | 429 nM
B11 | 540 nM
B12 | 44 nM
B13 | 123 nM
B14 | 23.6 nM
B15 | 40.3 nM
[Desaminohistidyl][Aib]EGTFTSDYSILLDKK([AEEA-AEEA-γGlu-C20 diacid])AQ[Aib]AFIEYLIEGGPSSGAPPPS-NH2 (also: reversed amide ψ[NHCO] between residues 1 and 2) [Example 105] | 20.4 nM
B16 | 15.7 nM
